Earlier results, collected in article PMC9152818.
Where two headings read alike, the source gives them in different places.

Legend:
[1] = molecular target: spike protein RBD (SARS-CoV-2) (UniProt P0DTC2)
[2] = molecular target: spike protein RBD (SARS-CoV-2) (UniProt P0DTC2); remark: listed apart in the source
[3] = molecular target: spike protein RBD (SARS-CoV-2) (UniProt P0DTC2); remark: listed apart in the source
[4] = molecular target: spike protein (SARS-CoV-2) (UniProt P0DTC2)
[5] = molecular target: spike protein CendR peptide CendR peptide (SARS-CoV-2) (UniProt P0DTC2)

soluble trimeric ACE2 (from UniProt Q9BYF1)
Kd [1]: < 0.001 µM

ASGR1 (from UniProt P07306)
Kd [2]: 0.095 µM

Kremen1 (from UniProt Q96MU8)
Kd [3]: 0.02 µM

AXL (from UniProt P30530)
Kd [4]: 1 µM

Neuropilin-1 (from UniProt O14786)
Kd [5]: 20 µM
